Data on 23 molecules can be found in article PMC10786891, “Massively parallel profiling of RNA-targeting CRISPR-Cas13d”.

First the molecules themselves.
T1: EsCas13d, nuclease-dead (Eubacterium siraeum, UniProt B0MS50, R295A;H300A;R849A;H854A)
T1 sequence: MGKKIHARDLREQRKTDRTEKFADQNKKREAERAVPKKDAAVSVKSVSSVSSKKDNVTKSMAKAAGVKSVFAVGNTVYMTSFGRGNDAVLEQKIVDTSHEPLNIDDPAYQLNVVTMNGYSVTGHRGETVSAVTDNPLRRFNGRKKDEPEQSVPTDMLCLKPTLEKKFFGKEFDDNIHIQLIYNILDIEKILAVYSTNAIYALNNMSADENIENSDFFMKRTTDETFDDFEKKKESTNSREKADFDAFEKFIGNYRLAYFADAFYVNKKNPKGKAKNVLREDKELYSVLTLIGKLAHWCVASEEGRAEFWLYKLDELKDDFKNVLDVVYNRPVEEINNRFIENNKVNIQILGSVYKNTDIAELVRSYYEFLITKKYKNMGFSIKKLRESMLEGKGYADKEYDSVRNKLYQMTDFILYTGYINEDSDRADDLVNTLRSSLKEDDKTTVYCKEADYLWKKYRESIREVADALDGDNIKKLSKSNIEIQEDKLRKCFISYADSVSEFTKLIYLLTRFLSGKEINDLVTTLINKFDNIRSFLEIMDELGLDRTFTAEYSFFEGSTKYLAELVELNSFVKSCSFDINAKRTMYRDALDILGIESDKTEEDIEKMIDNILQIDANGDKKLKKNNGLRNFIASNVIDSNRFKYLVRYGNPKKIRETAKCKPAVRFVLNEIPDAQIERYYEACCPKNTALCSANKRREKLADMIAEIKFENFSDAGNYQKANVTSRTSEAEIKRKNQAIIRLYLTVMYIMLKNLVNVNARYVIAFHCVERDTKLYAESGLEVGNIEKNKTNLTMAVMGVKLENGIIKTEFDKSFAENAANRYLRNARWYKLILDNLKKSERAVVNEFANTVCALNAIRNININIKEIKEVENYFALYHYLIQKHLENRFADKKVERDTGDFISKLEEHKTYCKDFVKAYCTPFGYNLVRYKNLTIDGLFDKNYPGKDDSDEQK

B1: target 1 A1G,A14G (mixed)
RNA 1: CACCCGUGCAAAAAUGCAGGGGUCUAAAACUGAGCGGAUAACCUCUCUAUGG
RNA 2: GGGAAUGGAUCCACAUCUACGAAUUCGUACCAUAGAGGGGUUAUCCGCUCGCCGAGAUCGGAAGAGCACACGU
B2: target 1 insA 3' of 17 (mixed)
RNA 1: CACCCGUGCAAAAAUGCAGGGGUCUAAAACUGAGCGGAUAACCUCUCUAUGG
RNA 2: GGGAAUGGAUCCACAUCUACGAAUUCGUACCAUAGAAGAGGUUAUCCGCUCACCGAGAUCGGAAGAGCACACGU
B3: target 1 A16U,G17U (mixed)
RNA 1: CACCCGUGCAAAAAUGCAGGGGUCUAAAACUGAGCGGAUAACCUCUCUAUGG
RNA 2: GGGAAUGGAUCCACAUCUACGAAUUCGUACCAUAUUGAGGUUAUCCGCUCACCGAGAUCGGAAGAGCACACGU
B4: target 2 MT 5'PFS AAG 3'PFS UAU (mixed)
RNA 1: CACCCGUGCAAAAUUGCAGGGGUCUAAAACCUUCUCCAAAUUGUUUCAUCCU
RNA 2: GGGAAUGGAUCCACAUCUACGAAUUCAAGAGGAUGAAACAAUUUGGAGAAGUAUAGAUCGGAAGAGCACACGU
B5: target 2 MT 5'PFS AUU 3'PFS UGC (mixed)
RNA 1: CACCCGUGCAAAAUUGCAGGGGUCUAAAACCUUCUCCAAAUUGUUUCAUCCU
RNA 2: GGGAAUGGAUCCACAUCUACGAAUUCAUUAGGAUGAAACAAUUUGGAGAAGUGCAGAUCGGAAGAGCACACGU
B6: target 2 MT 5'PFS ACU 3'PFS UCA (mixed)
RNA 1: CACCCGUGCAAAAUUGCAGGGGUCUAAAACCUUCUCCAAAUUGUUUCAUCCU
RNA 2: GGGAAUGGAUCCACAUCUACGAAUUCACUAGGAUGAAACAAUUUGGAGAAGUCAAGAUCGGAAGAGCACACGU
B7: target 2 MT 5'PFS ACG 3'PFS ACA (mixed)
RNA 1: CACCCGUGCAAAAUUGCAGGGGUCUAAAACCUUCUCCAAAUUGUUUCAUCCU
RNA 2: GGGAAUGGAUCCACAUCUACGAAUUCACGAGGAUGAAACAAUUUGGAGAAGACAAGAUCGGAAGAGCACACGU
B8: target 2 MT 5'PFS ACG 3'PFS ACC (mixed)
RNA 1: CACCCGUGCAAAAUUGCAGGGGUCUAAAACCUUCUCCAAAUUGUUUCAUCCU
RNA 2: GGGAAUGGAUCCACAUCUACGAAUUCACGAGGAUGAAACAAUUUGGAGAAGACCAGAUCGGAAGAGCACACGU
B9: target 2 MT 5'PFS ACU 3'PFS UCU (mixed)
RNA 1: CACCCGUGCAAAAUUGCAGGGGUCUAAAACCUUCUCCAAAUUGUUUCAUCCU
RNA 2: GGGAAUGGAUCCACAUCUACGAAUUCACUAGGAUGAAACAAUUUGGAGAAGUCUAGAUCGGAAGAGCACACGU
B10: target 2 MT 5'PFS GGC 3'PFS AAG (mixed)
RNA 1: CACCCGUGCAAAAUUGCAGGGGUCUAAAACCUUCUCCAAAUUGUUUCAUCCU
RNA 2: GGGAAUGGAUCCACAUCUACGAAUUCGGCAGGAUGAAACAAUUUGGAGAAGAAGAGAUCGGAAGAGCACACGU
B11: target 2 MT 5'PFS CUU 3'PFS AUC (mixed)
RNA 1: CACCCGUGCAAAAUUGCAGGGGUCUAAAACCUUCUCCAAAUUGUUUCAUCCU
RNA 2: GGGAAUGGAUCCACAUCUACGAAUUCCUUAGGAUGAAACAAUUUGGAGAAGAUCAGAUCGGAAGAGCACACGU
B12: target 2 MT 5'PFS ACU 3'PFS UCG (mixed)
RNA 1: CACCCGUGCAAAAUUGCAGGGGUCUAAAACCUUCUCCAAAUUGUUUCAUCCU
RNA 2: GGGAAUGGAUCCACAUCUACGAAUUCACUAGGAUGAAACAAUUUGGAGAAGUCGAGAUCGGAAGAGCACACGU
B13: target 2 MT 5'PFS GUA 3'PFS GAA (mixed)
RNA 1: CACCCGUGCAAAAUUGCAGGGGUCUAAAACCUUCUCCAAAUUGUUUCAUCCU
RNA 2: GGGAAUGGAUCCACAUCUACGAAUUCGUAAGGAUGAAACAAUUUGGAGAAGGAAAGAUCGGAAGAGCACACGU
B14: target 2 MT 5'PFS GCU 3'PFS AGG (mixed)
RNA 1: CACCCGUGCAAAAUUGCAGGGGUCUAAAACCUUCUCCAAAUUGUUUCAUCCU
RNA 2: GGGAAUGGAUCCACAUCUACGAAUUCGCUAGGAUGAAACAAUUUGGAGAAGAGGAGAUCGGAAGAGCACACGU
B15: target 2 MT 5'PFS GCU 3'PFS CCA (mixed)
RNA 1: CACCCGUGCAAAAUUGCAGGGGUCUAAAACCUUCUCCAAAUUGUUUCAUCCU
RNA 2: GGGAAUGGAUCCACAUCUACGAAUUCGCUAGGAUGAAACAAUUUGGAGAAGCCAAGAUCGGAAGAGCACACGU
B16: target 2 MT 5'PFS GGC 3'PFS AAC (mixed)
RNA 1: CACCCGUGCAAAAUUGCAGGGGUCUAAAACCUUCUCCAAAUUGUUUCAUCCU
RNA 2: GGGAAUGGAUCCACAUCUACGAAUUCGGCAGGAUGAAACAAUUUGGAGAAGAACAGAUCGGAAGAGCACACGU
B17: target 2 MT 5'PFS GUA 3'PFS GAC (mixed)
RNA 1: CACCCGUGCAAAAUUGCAGGGGUCUAAAACCUUCUCCAAAUUGUUUCAUCCU
RNA 2: GGGAAUGGAUCCACAUCUACGAAUUCGUAAGGAUGAAACAAUUUGGAGAAGGACAGAUCGGAAGAGCACACGU
B18: target 2 MT 5'PFS GUA 3'PFS UAU (mixed)
RNA 1: CACCCGUGCAAAAUUGCAGGGGUCUAAAACCUUCUCCAAAUUGUUUCAUCCU
RNA 2: GGGAAUGGAUCCACAUCUACGAAUUCGUAAGGAUGAAACAAUUUGGAGAAGUAUAGAUCGGAAGAGCACACGU
B19: target 2 MT 5'PFS GGC 3'PFS AAA (mixed)
RNA 1: CACCCGUGCAAAAUUGCAGGGGUCUAAAACCUUCUCCAAAUUGUUUCAUCCU
RNA 2: GGGAAUGGAUCCACAUCUACGAAUUCGGCAGGAUGAAACAAUUUGGAGAAGAAAAGAUCGGAAGAGCACACGU
B20: target 2 MT 5'PFS AAG 3'PFS UAA (mixed)
RNA 1: CACCCGUGCAAAAUUGCAGGGGUCUAAAACCUUCUCCAAAUUGUUUCAUCCU
RNA 2: GGGAAUGGAUCCACAUCUACGAAUUCAAGAGGAUGAAACAAUUUGGAGAAGUAAAGAUCGGAAGAGCACACGU
B21: target 2 MT 5'PFS GCU 3'PFS AGA (mixed)
RNA 1: CACCCGUGCAAAAUUGCAGGGGUCUAAAACCUUCUCCAAAUUGUUUCAUCCU
RNA 2: GGGAAUGGAUCCACAUCUACGAAUUCGCUAGGAUGAAACAAUUUGGAGAAGAGAAGAUCGGAAGAGCACACGU
B22: target 2 MT 5'PFS CAA 3'PFS AGC (mixed)
RNA 1: CACCCGUGCAAAAUUGCAGGGGUCUAAAACCUUCUCCAAAUUGUUUCAUCCU
RNA 2: GGGAAUGGAUCCACAUCUACGAAUUCCAAAGGAUGAAACAAUUUGGAGAAGAGCAGAUCGGAAGAGCACACGU
B23: target 2 MT 5'PFS ACU 3'PFS UCC (mixed)
RNA 1: CACCCGUGCAAAAUUGCAGGGGUCUAAAACCUUCUCCAAAUUGUUUCAUCCU
RNA 2: GGGAAUGGAUCCACAUCUACGAAUUCACUAGGAUGAAACAAUUUGGAGAAGUCCAGAUCGGAAGAGCACACGU

This series has as its target T1, EsCas13d, nuclease-dead. In words: crRNA (strand 1, pre-loaded); Mg2+; 40 mM Tris-HCl pH 7.5, 150 mM NaCl, 6 mM MgCl2, 1 mM DTT, 0.1% Tween-20, 0.2 mg/ml BSA; 25 C; 10 min per concentration, then washed. The note with it: tags: His6-TwinStrep-SUMO cleaved; N-terminal SNAP kept (SNAP-Surface 488); label: 3' end held by stalled T7 RNA polymerase.
In the case of B1, the equilibrium dissociation constant (Kd) is 14.3 ± 0.8 nM.

Turning to B2, the affinity, expressed as Kd, was 11.8 ± 1.3 nM. With B3 the figure was 22 ± 2.1 nM; with B4, 3.6 ± 0.6 nM. With B5 the figure was 9.7 ± 1.4 nM; with B6, 7.3 ± 1.7 nM; with B7, 9.7 ± 2.4 nM.

B8 displayed a dissociation constant (Kd) of about 20 nM. The result for B9 reads 8.4 ± 0.9 nM; that for B10, 13.1 ± 2 nM. With B11, the Kd came out at 5.1 ± 0.9 nM. B12: the Kd was 6.7 ± 1 nM. Take B13: binding was characterised by a dissociation constant (Kd) of 6.7 ± 2.4 nM.

As for B14, the Kd worked out at 7.9 ± 0.8 nM. With B15 the figure was 25 ± 12 nM; with B16, 11.7 ± 1.4 nM.

The molecule B17 showed an equilibrium dissociation constant (Kd) of 7.9 ± 1.4 nM. Regarding B18, the dissociation constant Kd turned out to be 7.8 ± 0.7 nM. B19 showed a Kd of 8.9 ± 1.5 nM. The result for B20 reads 3.7 ± 0.7 nM; that for B21, 7.3 ± 2.1 nM; that for B22, 7.6 ± 2.2 nM. In turn, B23 showed a Kd of 14.3 ± 3.5 nM.

As usually defined, the Kd is the constant that tells how readily two partners part at equilibrium.
